From patent US20210403547A1

Target: membrane-bound ligands (TGF-alpha and Epiregulin) on HT-29 cells
Assay: cell-based or functional assay

Substance: Control IgG (antibody)
- Mean Ringspot Total Intensity of Fluorescence (internalization into HT-29 cells), 40 ug/mL, 0 min post addition: 94
- Mean Ringspot Total Intensity of Fluorescence (internalization into HT-29 cells), 40 ug/mL, 5 min post addition: 116
- Mean Ringspot Total Intensity of Fluorescence (internalization into HT-29 cells), 40 ug/mL, 15 min post addition: 126
- Mean Ringspot Total Intensity of Fluorescence (internalization into HT-29 cells), 40 ug/mL, 30 min post addition: 124
- Mean Ringspot Total Intensity of Fluorescence (internalization into HT-29 cells), 40 ug/mL, 60 min post addition: 167
- Mean Ringspot Total Intensity of Fluorescence (internalization into HT-29 cells), 40 ug/mL, 120 min post addition: 177
- Mean Ringspot Total Intensity of Fluorescence (internalization into HT-29 cells), dose 0.34 ug/ml, 2 h at 37 C: 1410
- Mean Ringspot Total Intensity of Fluorescence (internalization into HT-29 cells), dose 0.69 ug/ml, 2 h at 37 C: 1480
- Mean Ringspot Total Intensity of Fluorescence (internalization into HT-29 cells), dose 1.38 ug/ml, 2 h at 37 C: 1470
- Mean Ringspot Total Intensity of Fluorescence (internalization into HT-29 cells), dose 2.75 ug/ml, 2 h at 37 C: 1570
- Mean Ringspot Total Intensity of Fluorescence (internalization into HT-29 cells), dose 5.5 ug/ml, 2 h at 37 C: 1360
- Mean Ringspot Total Intensity of Fluorescence (internalization into HT-29 cells), dose 11 ug/ml, 2 h at 37 C: 1390
- Mean Ringspot Total Intensity of Fluorescence (internalization into HT-29 cells), dose 22 ug/ml, 2 h at 37 C: 1760
- Mean Ringspot Total Intensity of Fluorescence (internalization into HT-29 cells), dose 44 ug/ml, 2 h at 37 C: 1810
- Mean Ringspot Total Intensity of Fluorescence (internalization into HT-29 cells), dose 88 ug/ml, 2 h at 37 C: 2440
